Data published in paper PMC4378652 (Molecular and cellular endocrinology, 2015).
One block for each binder: values may come before it.

Biological target: T1, rat FSH receptor (rat testis homogenate) (rat (endogenous in rat testis), UniProt P20395 18-692)
T1 sequence (looked up): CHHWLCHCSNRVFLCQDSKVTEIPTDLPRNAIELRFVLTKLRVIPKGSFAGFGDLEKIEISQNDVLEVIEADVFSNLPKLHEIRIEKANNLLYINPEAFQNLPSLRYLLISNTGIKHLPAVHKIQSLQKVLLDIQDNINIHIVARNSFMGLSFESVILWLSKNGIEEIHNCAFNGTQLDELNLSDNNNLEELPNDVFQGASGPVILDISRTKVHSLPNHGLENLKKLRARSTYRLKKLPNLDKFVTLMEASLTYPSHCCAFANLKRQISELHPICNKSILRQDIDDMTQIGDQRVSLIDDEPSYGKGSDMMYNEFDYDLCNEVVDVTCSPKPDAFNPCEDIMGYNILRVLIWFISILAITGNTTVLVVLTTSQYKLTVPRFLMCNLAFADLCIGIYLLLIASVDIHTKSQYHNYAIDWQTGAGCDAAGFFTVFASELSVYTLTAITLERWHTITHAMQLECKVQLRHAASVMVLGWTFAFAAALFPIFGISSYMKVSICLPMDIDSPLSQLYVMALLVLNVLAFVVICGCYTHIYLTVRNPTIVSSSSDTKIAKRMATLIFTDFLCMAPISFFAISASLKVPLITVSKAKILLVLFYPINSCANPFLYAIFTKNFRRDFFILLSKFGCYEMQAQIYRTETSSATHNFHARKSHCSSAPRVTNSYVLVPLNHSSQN
Test: radioligand binding

ID50: 114 ng
B1: Pituitary hFSH^24/21 (AFP7298A) (ligand)
chain 1: not shown
chain 2: NSCELTNITIAIEKEECRFCISINTTWCAGYCYTRDLVYKDPARPKIQKTCTFKELVYETVRVPGCAHHADSLYTYPVATQCHCGKCDSDSTDCTVRGLGPSYCSFGEMKE
modifications: N-glycosylated (positions not given) | mixture of FSHβ^24 (fully glycosylated) and FSHβ^21, FSHβ^24 the more abundant

ID50: 253 ng
B2: Pituitary hFSH^24 (ligand)
chain 1: not shown
chain 2: B1 chain 2
modifications: N-glycosylated (two N-glycans, positions not given) | fully glycosylated FSHβ^24 (N-glycans at Asn7 and Asn24)
